Paper PMC2881539 (Analytical biochemistry, 2010)

Experiments:
Test in all cases: ELISA
Fzd5 CRD = Fzd5 CRD (UniProt Q13467); details: cited from earlier work
mWnt3a-V5/6xHis = mWnt3a-V5/6xHis (mouse, UniProt P27467 19-352)
[1] = target: T1, purified hSFRP4 (R & D Systems) (human, UniProt Q6FHJ7 19-346)
T1 sequence (looked up): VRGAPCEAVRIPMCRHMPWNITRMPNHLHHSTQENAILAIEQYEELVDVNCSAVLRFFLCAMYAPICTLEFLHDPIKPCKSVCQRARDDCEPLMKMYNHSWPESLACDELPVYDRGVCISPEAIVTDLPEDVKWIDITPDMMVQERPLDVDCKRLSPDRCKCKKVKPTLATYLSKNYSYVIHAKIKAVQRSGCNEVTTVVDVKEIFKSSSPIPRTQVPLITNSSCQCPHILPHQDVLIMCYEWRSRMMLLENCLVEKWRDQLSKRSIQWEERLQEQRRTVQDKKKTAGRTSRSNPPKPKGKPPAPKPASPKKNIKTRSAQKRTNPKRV

Sequence of mWnt3a-V5/6xHis (P27467 19-352): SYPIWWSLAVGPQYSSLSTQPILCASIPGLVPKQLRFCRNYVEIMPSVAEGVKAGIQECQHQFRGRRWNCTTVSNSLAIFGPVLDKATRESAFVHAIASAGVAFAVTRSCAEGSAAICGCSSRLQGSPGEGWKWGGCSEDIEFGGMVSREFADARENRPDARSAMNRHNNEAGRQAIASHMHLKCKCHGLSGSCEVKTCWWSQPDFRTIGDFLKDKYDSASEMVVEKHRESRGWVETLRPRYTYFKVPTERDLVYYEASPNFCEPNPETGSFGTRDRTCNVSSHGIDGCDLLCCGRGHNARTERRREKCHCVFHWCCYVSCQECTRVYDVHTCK

Wnt7a (from UniProt O00755)
Kd (Fzd5 CRD): 75.4 nM

B1: hFzd5CRD-Fc IgG (Fc fusion, human, UniProt Q13467 27-150, looked up)
chain: ASKAPVCQEITVPMCRGIGYNLTHMPNQFNHDTQDEAGLEVHQFWPLVEIQCSPDLRFFLCSMYTPICLPDYHKPLPPCRSVCERAKAGCSPLMRQYGFAWPERMSCDRLPVLGRDAEVLCMDY
Kd (mWnt3a-V5/6xHis): 83.7 nM

B2: rWnt7a V5/6xHis (ligand, UniProt O00755 32-349, looked up)
chain: LGASIICNKIPGLAPRQRAICQSRPDAIIVIGEGSQMGLDECQFQFRNGRWNCSALGERTVFGKELKVGSREAAFTYAIIAAGVAHAITAACTQGNLSDCGCDKEKQGQYHRDEGWKWGGCSADIRYGIGFAKVFVDAREIKQNARTLMNLHNNEAGRKILEENMKLECKCHGVSGSCTTKTCWTTLPQFRELGYVLKDKYNEAVHVEPVRASRNKRPTFLKIKKPLSYRKPMDTDLVYIEKSPNYCEEDPVTGSVGTQGRACNKTAPQASGCDLMCCGRGYNTHQYARVWQCNCKFHWCCYVKCNTCSERTEMYTCK
Kd [1]: 86.5 nM
